Molecular target: T1, RNF31 PUB domain (Homo sapiens, UniProt Q96EP0)
T1 construct: MBP-TEV (N, cleaved yes); made in house; host or cells: E. coli BL21 (DE3) pLysS
T1 sequence (Q96EP0 1-179): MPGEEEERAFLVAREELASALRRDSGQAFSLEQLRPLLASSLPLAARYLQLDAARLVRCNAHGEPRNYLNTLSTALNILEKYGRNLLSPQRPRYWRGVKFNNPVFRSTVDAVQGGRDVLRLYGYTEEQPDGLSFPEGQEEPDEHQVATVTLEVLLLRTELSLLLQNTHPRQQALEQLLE
Assay: Phage Library Screening with NGS, RNF31 PUB domain
Type: binding
Conditions: for Phage library screen NGS readout, Target Concentration 10 / Phage library screen NGS readout, Target Concentration 30 / Phage library screen NGS readout, Target Concentration 100 / Phage library screen NGS readout, Target Concentration 300 / Phage library screen NGS readout, Target Concentration 1000: RNF31 PUB domain clusters C41-C45; for Phage library screen NGS readout, BLANK: clusters C41-C45

[1] = target concentration 1000, first column
[2] = target concentration 1000, second column

Sequence | Phage library screen NGS readout, Target Concentration 10 | Phage library screen NGS readout, Target Concentration 30 | Phage library screen NGS readout, Target Concentration 100 | Phage library screen NGS readout, Target Concentration 300 | Phage library screen NGS readout, Target Concentration 1000 [1] | Phage library screen NGS readout, Target Concentration 1000 [2] | Phage library screen NGS readout, BLANK (column 1 of 5) | Phage library screen NGS readout, BLANK (column 2 of 5) | Phage library screen NGS readout, BLANK (column 3 of 5) | Phage library screen NGS readout, BLANK (column 4 of 5) | Phage library screen NGS readout, BLANK (column 5 of 5)
DPAADDCEWAALYCSFH | 2 | 0 | 0 | 3 | 3 | 8 | 2 | 9 | 0 | 2 | 3
DPAADQCDIAAFVCSTY | 0 | 0 | 0 | 4 | 26 | 17 | 0 | 0 | 0 | 0 | 0
DPAAEDCHIAAMVCMTY | 0 | 4 | 0 | 12 | 46 | 67 | 0 | 0 | 0 | 0 | 0
DPAAWECHIAAFVCSTY | 1 | 1 | 0 | 2 | 8 | 7 | 0 | 0 | 0 | 0 | 0
DPADWDCMYAAQDCFED | 0 | 0 | 1 | 1 | 11 | 1 | 0 | 0 | 0 | 0 | 0
DPAEDECDWAALYCDMQ | 0 | 0 | 0 | 1 | 7 | 6 | 0 | 0 | 0 | 0 | 0
DPAEDECQDAAILCSYN | 1 | 3 | 0 | 7 | 19 | 6 | 1 | 0 | 0 | 0 | 1
DPAEDWCMYAAWDCQME | 1 | 0 | 0 | 4 | 22 | 10 | 0 | 0 | 0 | 0 | 0
DPAEEYCLEAAILCTYD | 0 | 0 | 1 | 14 | 44 | 32 | 0 | 0 | 0 | 0 | 0
DPAEQFCLYAAYDCYSE | 2 | 0 | 0 | 2 | 18 | 9 | 1 | 3 | 1 | 0 | 0
DPAEWDCLYAAFDCFAN | 2 | 2 | 0 | 3 | 15 | 7 | 0 | 0 | 0 | 0 | 0
DPAFAQCEVAAMVCTTY | 0 | 0 | 0 | 2 | 5 | 6 | 0 | 0 | 0 | 0 | 0
DPAFDWCLYAADDCAET | 1 | 0 | 0 | 3 | 31 | 12 | 0 | 0 | 0 | 0 | 1
DPAFHDCQFAAAVCSTY | 0 | 0 | 0 | 3 | 26 | 26 | 0 | 0 | 0 | 0 | 0
DPAFMDCVFAAAVCATY | 0 | 0 | 0 | 2 | 8 | 8 | 0 | 1 | 1 | 0 | 0
DPAFQFCVEAAVACSYY | 0 | 0 | 0 | 6 | 9 | 5 | 0 | 0 | 0 | 0 | 4
DPAFTDCQLAAAVCMTY | 0 | 0 | 3 | 31 | 161 | 145 | 1 | 2 | 0 | 0 | 0
DPAFWACLYAAEECVVD | 0 | 0 | 0 | 3 | 6 | 9 | 1 | 0 | 0 | 0 | 1
